This is an account of results in PMC12269619 (2025).

To fix the notation:
B1: m42.127 Fab / Biotinylated junctional peptide Pep21 (PfCSP peptide 21) [modified: biotin (position not stated); biotin (position not stated)] [Plasmodium falciparum (clone 3D7)] (parent complex)
chain 1: QVQLVQSGAEVKKPGASVKVSCKASGYTFTSYAIHWVRQAPGQRLEWMGWIKAGNGNTRYSQKFQDRVTITRDTSASTAYMELSSLRSEDTAVYYCALLTVITPDDTFDIWGQGTMVTVSSASTKGPSVFPLAPSSKSTSGGTAALGCLVKDYFPEPVTVSWNSGALTSGVHTFPAVLQSSGLYSLSSVVTVPSSSLGTQTYICNVNHKPSNTKVDKKVEPKSCDKGLEVLFQ
chain 2: not shown
chain 3: NPDPNANPNVDPNAN

What is called Kd is a measure of binding affinity in units of concentration.

Variants of B1 are the subject of this experiment. Kind of experiment: BLI; read off a plot. (In general: BLI is a label-free optical method that tracks binding on a fibre tip over time.)
With chain 1 P104M, the Kd was ~22 nM.

As to chain 1 P104Q, the dissociation constant (Kd) is ~20 nM.

Turning to chain 1 Y32K, the equilibrium dissociation constant (Kd) was ~18 nM.

With chain 1 T103K, the Kd was ~15 nM.

As to chain 1 T103R, chain 1 P104Q, the Kd is ~18 nM.

Regarding chain 1 T103R, chain 1 P104R, the dissociation constant (Kd) was ~15 nM.

Regarding chain 1 T100M, the Kd was ~24 nM.
